Measured values: publication PMC3796201 (Nature structural & molecular biology, 2013)

Target: CRM1 (human, recombinant, His-tagged) (human, UniProt O14980 1-1071)
Assay: pull-down

CRM1 (human, recombinant, His-tagged), sequence (O14980 whole entry): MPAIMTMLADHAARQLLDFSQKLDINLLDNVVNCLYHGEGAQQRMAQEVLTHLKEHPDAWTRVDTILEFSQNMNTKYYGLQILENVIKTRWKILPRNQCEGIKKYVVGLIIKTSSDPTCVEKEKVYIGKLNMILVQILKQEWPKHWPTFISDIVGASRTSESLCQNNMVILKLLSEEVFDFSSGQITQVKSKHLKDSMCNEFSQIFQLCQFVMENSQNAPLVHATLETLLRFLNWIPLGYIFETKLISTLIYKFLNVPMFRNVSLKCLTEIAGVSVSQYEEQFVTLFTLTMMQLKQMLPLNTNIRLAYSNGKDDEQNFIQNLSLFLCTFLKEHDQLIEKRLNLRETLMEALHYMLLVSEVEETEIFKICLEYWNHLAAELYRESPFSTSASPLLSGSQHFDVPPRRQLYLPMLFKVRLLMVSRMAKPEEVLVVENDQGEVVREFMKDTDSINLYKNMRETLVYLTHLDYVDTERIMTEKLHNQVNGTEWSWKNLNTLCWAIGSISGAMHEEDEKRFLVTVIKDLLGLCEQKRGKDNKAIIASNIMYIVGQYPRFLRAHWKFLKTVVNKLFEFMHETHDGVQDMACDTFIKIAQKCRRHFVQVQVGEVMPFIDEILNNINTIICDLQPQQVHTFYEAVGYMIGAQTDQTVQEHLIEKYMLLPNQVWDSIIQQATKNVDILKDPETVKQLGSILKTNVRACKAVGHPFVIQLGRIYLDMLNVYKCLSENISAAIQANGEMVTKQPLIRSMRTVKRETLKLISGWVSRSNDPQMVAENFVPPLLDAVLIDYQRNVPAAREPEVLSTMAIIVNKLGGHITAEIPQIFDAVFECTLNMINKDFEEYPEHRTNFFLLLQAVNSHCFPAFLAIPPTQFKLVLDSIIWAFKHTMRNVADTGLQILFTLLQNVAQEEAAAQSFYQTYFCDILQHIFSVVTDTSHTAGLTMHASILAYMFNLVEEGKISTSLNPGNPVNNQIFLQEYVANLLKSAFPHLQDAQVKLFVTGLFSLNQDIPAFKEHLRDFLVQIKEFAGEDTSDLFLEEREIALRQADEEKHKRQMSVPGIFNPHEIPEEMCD

binding result: binds
B1: GST-RAD51 F86E (natural protein, human, UniProt Q06609 1-339, looked up)
chain: MAMQMQLEANADTSVEEESFGPQPISRLEQCGINANDVKKLEEAGFHTVEAVAYAPKKELINIKGISEAKADKILAEAAKLVPMGETTATEFHQRRSEIIQITTGSKELDKLLQGGIETGSITEMFGEFRTGKTQICHTLAVTCQLPIDRGGGEGKAMYIDTEGTFRPERLLAVAERYGLSGSDVLDNVAYARAFNTDHQTQLLYQASAMMVESRYALLIVDSATALYRTDYSGRGELSARQMHLARFLRMLLRLADEFGVAVVITNQVVAQVDGAAMFAADPKKPIGGNIIAHASTTRLYLRKGRGETRICKIYDSPCLPEAEAMFAINADGVGDAKD
